Residue numbers refer to the chain shown, from its start. Values belong to the molecule of their own block, whether it stands above or below them.
How the values were obtained:
[1] = target: T1, Dbp6 (Saccharomyces cerevisiae, UniProt P53734); test: EMSA, effect on Dbp6 binding to hemi-duplex RNA ds38/[…]; conditions: 0.5-5 mM nucleotide, 0.5 μM protein, 1 nM RNA, MgCl2 2.5 mM, pH 8, 30°C; indirect read-out
T1 construct: full-length ORF, His6 tag (modified pET-15b, pET-Dbp6), kept; E. coli Rosetta λDE3; ca. 73 kDa; size exclusion fraction, mainly monomer / dimer
T1 sequence (P53734 1-629): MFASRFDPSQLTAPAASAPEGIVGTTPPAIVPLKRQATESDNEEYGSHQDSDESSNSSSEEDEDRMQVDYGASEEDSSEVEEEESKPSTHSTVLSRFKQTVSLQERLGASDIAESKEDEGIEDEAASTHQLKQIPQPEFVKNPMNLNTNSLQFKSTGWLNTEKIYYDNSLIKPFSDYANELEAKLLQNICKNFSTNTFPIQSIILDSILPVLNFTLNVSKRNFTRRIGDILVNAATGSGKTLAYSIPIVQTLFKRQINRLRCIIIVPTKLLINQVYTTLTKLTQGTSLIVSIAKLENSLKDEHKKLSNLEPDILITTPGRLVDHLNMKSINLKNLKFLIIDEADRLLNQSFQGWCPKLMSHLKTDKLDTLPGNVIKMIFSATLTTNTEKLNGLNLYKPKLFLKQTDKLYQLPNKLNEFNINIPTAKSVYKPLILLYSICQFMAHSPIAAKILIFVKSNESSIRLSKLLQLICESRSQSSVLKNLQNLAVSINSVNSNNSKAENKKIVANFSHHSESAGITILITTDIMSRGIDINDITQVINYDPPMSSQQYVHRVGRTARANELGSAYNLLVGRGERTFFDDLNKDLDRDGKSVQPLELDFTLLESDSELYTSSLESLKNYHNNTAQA

[2] = target: T1, Dbp6; test: RNA strand annealing assay (ss38-mer / ss58-mer), effect of nucleotide; format: biochemical; conditions: 5 mM ADP, 0.25 μM protein, MgCl2 2.5 mM, pH 8, 30°C; indirect read-out
[3] = target: T1, Dbp6; test: ATPase assay, TLC of [α-32P]-ADP; format: biochemical; conditions: 100 μM ATP, 0.8 μM protein, 2 μM ss58-mer RNA, MgCl2 2.5 mM, pH 8, 30°C; trace E. coli ATPase not excluded by the authors
[4] = target: the molecule itself; test: SEC; Superdex 200 gel filtration after HisTrap; GF-ATPase buffer (20 mM Tris–HCl pH 8.0, 100 mM KCl, 10% glycerol, 1 mM DTT, 0.5 mM PMSF); column calibrated with molecular weight standards
[5] = target: T2, Dbp6 (Saccharomyces cerevisiae, UniProt P53734 1-629); test: EMSA; Dbp6 up to 1.2 uM; EMSA: 1 nM 32P-RNA, RB 1x (composition not in the material), RNasin, 15 min at 30 C, native PAGE in TBE; bridging: 0.8 uM Dbp6, RB 1x, 15 min at 30 C; conditions: protein: recombinant; tags: N-terminal His6; label: 32P
T2 sequence: T1 sequence (P53734 1-629)

[6] = target: T3, Dbp6 M-II mutant (motif II, DEAD to DAAD), His6-tagged recombinant, P53734; test: UV cross-linking; conditions: chain shown with the change, no RNA included, parent: est. 0.51, read off a plot
T3 chain: T1 sequence (P53734 1-629) with E342A

[7] = target: the molecule itself; test: cross-linking; purified recombinant Dbp6 (1.5 or 0.8 μM) in RB 1× buffer, 15 min at 20°C, UV 312 nm for 6 min on ice; SDS-PAGE, western blot or silver staining; with or without ATP (1 or 5 μM with labelled ATP; 5 mM) and RNA oligonucleotide
[8] = target: T4, Dbp6 M-I mutant (motif I, GTGKT), His6-tagged recombinant, P53734; test: UV cross-linking; conditions: chain shown with the change, no RNA included, parent: est. 0.51, read off a plot
T4 chain: T1 sequence (P53734 1-629) with K240A

[9] = target: the molecule itself; test: co-IP; immunoprecipitation of Dbp6-ZZ with IgG-sepharose from extracts of a yeast strain expressing HA-Dbp6 and ZZ-tagged Dbp6, in the presence of RNase; western blot
[10] = target: T2, Dbp6; test: EMSA; no nucleotide; EMSA: 1 nM 32P-RNA, RB 1x (composition not in the material), RNasin, 15 min at 30 C, native PAGE in TBE; bridging: 0.8 uM Dbp6, RB 1x, 15 min at 30 C; conditions: protein: recombinant; tags: N-terminal His6; label: 32P
[11] = target: T2, Dbp6; test: EMSA; high affinity; no nucleotide; EMSA: 1 nM 32P-RNA, RB 1x (composition not in the material), RNasin, 15 min at 30 C, native PAGE in TBE; bridging: 0.8 uM Dbp6, RB 1x, 15 min at 30 C; conditions: protein: recombinant; tags: N-terminal His6; label: 32P on ss38-mer; 3' overhang 20 nt on strand 1; 38 bp region with one C-C mismatch

Molecule: Nc1ncnc2c1ncn2[C@@H]1O[C@H](COP(=O)(O)OP(=O)(O)OP(O)(O)=S)[C@@H](O)[C@H]1O [ATPγS]
- EMSA, effect on Dbp6 binding to hemi-duplex RNA ds38/58 [1]: ATPγS had an even stronger effect on Dbp6 binding to the hemi-duplex than ATP.

Molecule: Nc1ncnc2c1ncn2[C@@H]1O[C@H](COP(=O)(O)OP(=O)(O)O)[C@@H](O)[C@H]1O [ADP]
- RNA strand annealing assay (ss38-mer / ss58-mer), effect of nucleotide [2]: In contrast, ADP addition increased the annealing activity of Dbp6.

Molecule: Nc1ncnc2c1ncn2[C@@H]1O[C@H](COP(=O)(O)OP(=O)(O)OP(=O)(O)O)[C@@H](O)[C@H]1O [ATP]
- ATPase assay, TLC of [α-32P]-ADP [3]: This ATPase activity could be attributed to Dbp6

B1: Dbp6 ΔN mutant (lacking the N-terminal D/E-rich sequence, residues 24–128), His6-tagged recombinant (enzyme, S. cerevisiae, UniProt P53734 1-629, looked up)
chain: MFASRFDPSQLTAPAASAPEGIVHQLKQIPQPEFVKNPMNLNTNSLQFKSTGWLNTEKIYYDNSLIKPFSDYANELEAKLLQNICKNFSTNTFPIQSIILDSILPVLNFTLNVSKRNFTRRIGDILVNAATGSGKTLAYSIPIVQTLFKRQINRLRCIIIVPTKLLINQVYTTLTKLTQGTSLIVSIAKLENSLKDEHKKLSNLEPDILITTPGRLVDHLNMKSINLKNLKFLIIDEADRLLNQSFQGWCPKLMSHLKTDKLDTLPGNVIKMIFSATLTTNTEKLNGLNLYKPKLFLKQTDKLYQLPNKLNEFNINIPTAKSVYKPLILLYSICQFMAHSPIAAKILIFVKSNESSIRLSKLLQLICESRSQSSVLKNLQNLAVSINSVNSNNSKAENKKIVANFSHHSESAGITILITTDIMSRGIDINDITQVINYDPPMSSQQYVHRVGRTARANELGSAYNLLVGRGERTFFDDLNKDLDRDGKSVQPLELDFTLLESDSELYTSSLESLKNYHNNTAQA
notes: made from pET-Dbp6; also called pET-ΔN; source: E. coli Rosetta λDE3, purified (HisTrap FF, Superdex 200)
- binding result [4]: binds

B2: ss21-mer (ssRNA)
RNA: GGGAGACCGGAAUUCAUCAUU
- binding result [5]: no binding

- other: quantity of oligomers with ATP, relative to without ATP (set at 1) [6]: 0.96
B3: recombinant His6-Dbp6, P53734 M-II: E to A in motif II (DEAD to DAAD) (protein)
chain: T1 sequence (P53734 1-629) with E342A

B4: recombinant His6-Dbp6 (enzyme, S. cerevisiae, UniProt P53734 1-629, looked up)
chain: T1 sequence (P53734 1-629)
notes: DEAD-box protein Dbp6 of yeast (S. cerevisiae), DBP6 ORF cloned downstream of a His tag in modified pET-15b; His6-Dbp6 ca. 73 kDa; SEC fractions also hold some truncated fragments of Dbp6; fraction F17 was used for the in vitro assays; also called WT Dbp6; wild-type Dbp6; source: E. coli Rosetta λDE3, purified (HisTrap FF, Superdex 200); not shown: His6, N-terminal, kept
- fold reduction of oligomerization with 5 mM ATP against no ATP [7]: ~2 fold
- stoichiometry N [4]: 2

- other: quantity of oligomers with ATP, relative to without ATP (set at 1) [8]: 0.97
B5: recombinant His6-Dbp6, P53734 M-I: K to A in motif I (GTGKT) (protein)
chain: T1 sequence (P53734 1-629) with K240A

B6: Dbp6 expressed in yeast as HA-Dbp6 and as Dbp6-ZZ (enzyme, S. cerevisiae, UniProt P53734 1-629, looked up)
chain: T1 sequence (P53734 1-629)
notes: DEAD-box protein Dbp6 of yeast (S. cerevisiae); HA-tagged ORF under the GAL1-10 promoter and wild-type DBP6 cassette in pHA113 between a GAR1 promoter and a ZZ tag; also called ZZ-tagged Dbp6; GAL::HA-DBP6; source: yeast strain expressing HA-Dbp6 as well as ZZ-tagged Dbp6, in extract
- fold enrichment over background [9]: ~2 fold

B7: ss38-mer (ssRNA)
RNA: CAGAACCGCUACACUGAAAUGAUCAAUUCCGGUCUCCC
- binding result [10]: binds

B8: ds38/58 hemi-duplex (dsRNA)
RNA 1: GGGAGACCGGAAUUCAUCAUUUCAGUGUAGCGGUUCUGACGUGCAAAUCGAUCGUCGA
RNA 2: B7 RNA
- binding result [11]: binds

From publication PMC9881158, “The DEAD-box protein Dbp6 is an ATPase and RNA annealase interacting with the peptidyl transferase center (PTC) of the ribosome” (Nucleic Acids Research, 2023)
